Assay results as given in patent US20250171562A1.

B1: CIgG4F2A1(RS) (Fc fusion)
chain 1: GPPCPPCPAPEFLGGPSVFLFPPKPKDTLMISRTPEVTCVVVDVSQEDPEVQFNWYVDGVEVHNAKTKPREEQFNSTYRVVSVLTVLHQDWLNGKEYKCKVSNKGLPSSIEKTISKAKGQPREPQVYTLPPCQEEMTKNQVSLWCLVKGFYPSDIAVEWESNGQPENNYKTTPPVLDSDGSFFLYSRLTVDKSRWQEGNVFSCSVMHEALHNHYTQKSLSLSLGKRSDVQLQESGGGLVQAGGSLKLSCAASGGSLSRYDMGWFRQAPGKEREFVARISWSGDTKYYADAVEGRFAISRDNAQNTVYLQMNSLKPEDTAVYYCAVALYGNRGYYDVNTYSYWGQGTRVTVS
chain 2: GPPCPPCPAPEFLGGPSVFLFPPKPKDTLMISRTPEVTCVVVDVSQEDPEVQFNWYVDGVEVHNAKTKPREEQFNSTYRVVSVLTVLHQDWLNGKEYKCKVSNKGLPSSIEKTISKAKGQPREPQVCTLPPSQEEMTKNQVSLSCAVKGFYPSDIAVEWESNGQPENNYKTTPPVLDSDGSFFLVSRLTVDKSRWQEGNVFSCSVMHEALHNHYTQKSLSLSLGKRSEVQLLESGGGLVQPGGSLRLSCAASGFTFGNYDMAWVRQAPGKRPEWVSSIDTGGDITHYADSVKGRFTISRDNAKNTLYLQMNSLRPEDTAVYWCATDEEYALGPNEFDYYGQGTLVTVSS
B2: CIgG4F1A1(G4S)3 (Fc fusion)
chain 1: GPPCPPCPAPEFLGGPSVFLFPPKPKDTLMISRTPEVTCVVVDVSQEDPEVQFNWYVDGVEVHNAKTKPREEQFNSTYRVVSVLTVLHQDWLNGKEYKCKVSNKGLPSSIEKTISKAKGQPREPQVYTLPPCQEEMTKNQVSLWCLVKGFYPSDIAVEWESNGQPENNYKTTPPVLDSDGSFFLYSRLTVDKSRWQEGNVFSCSVMHEALHNHYTQKSLSLSLGKGGGGSGGGGSGGGGSDVQLQESGGGLVQAGGSLKLSCAASGGSLSRYDMGWFRQAPGKEREFVARISWSGTTKYYADAVKGRFAISRDNAKNTVYLQMNSLKPEDTAVYYCAAAFYGNRGYYDVNAYTSSGQGTQVTVS
chain 2: GPPCPPCPAPEFLGGPSVFLFPPKPKDTLMISRTPEVTCVVVDVSQEDPEVQFNWYVDGVEVHNAKTKPREEQFNSTYRVVSVLTVLHQDWLNGKEYKCKVSNKGLPSSIEKTISKAKGQPREPQVCTLPPSQEEMTKNQVSLSCAVKGFYPSDIAVEWESNGQPENNYKTTPPVLDSDGSFFLVSRLTVDKSRWQEGNVFSCSVMHEALHNHYTQKSLSLSLGKGGGGSGGGGSGGGGSEVQLLESGGGLVQPGGSLRLSCAASGFTFGNYDMAWVRQAPGKRPEWVSSIDTGGDITHYADSVKGRFTISRDNAKNTLYLQMNSLRPEDTAVYWCATDEEYALGPNEFDYYGQGTLVTVSS
B3: CIgG4F2A1(G4S)2 (Fc fusion)
chain 1: GPPCPPCPAPEFLGGPSVFLFPPKPKDTLMISRTPEVTCVVVDVSQEDPEVQFNWYVDGVEVHNAKTKPREEQFNSTYRVVSVLTVLHQDWLNGKEYKCKVSNKGLPSSIEKTISKAKGQPREPQVYTLPPCQEEMTKNQVSLWCLVKGFYPSDIAVEWESNGQPENNYKTTPPVLDSDGSFFLYSRLTVDKSRWQEGNVFSCSVMHEALHNHYTQKSLSLSLGKGGGGSGGGGSDVQLQESGGGLVQAGGSLKLSCAASGGSLSRYDMGWFRQAPGKEREFVARISWSGDTKYYADAVEGRFAISRDNAQNTVYLQMNSLKPEDTAVYYCAVALYGNRGYYDVNTYSYWGQGTRVTVS
chain 2: GPPCPPCPAPEFLGGPSVFLFPPKPKDTLMISRTPEVTCVVVDVSQEDPEVQFNWYVDGVEVHNAKTKPREEQFNSTYRVVSVLTVLHQDWLNGKEYKCKVSNKGLPSSIEKTISKAKGQPREPQVCTLPPSQEEMTKNQVSLSCAVKGFYPSDIAVEWESNGQPENNYKTTPPVLDSDGSFFLVSRLTVDKSRWQEGNVFSCSVMHEALHNHYTQKSLSLSLGKGGGGSGGGGSEVQLLESGGGLVQPGGSLRLSCAASGFTFGNYDMAWVRQAPGKRPEWVSSIDTGGDITHYADSVKGRFTISRDNAKNTLYLQMNSLRPEDTAVYWCATDEEYALGPNEFDYYGQGTLVTVSS
B4: NIgG4F2A1(RS) (Fc fusion)
chain 1: DVQLQESGGGLVQAGGSLKLSCAASGGSLSRYDMGWFRQAPGKEREFVARISWSGDTKYYADAVEGRFAISRDNAQNTVYLQMNSLKPEDTAVYYCAVALYGNRGYYDVNTYSYWGQGTRVTVSRSGPPCPPCPAPEFLGGPSVFLFPPKPKDTLMISRTPEVTCVVVDVSQEDPEVQFNWYVDGVEVHNAKTKPREEQFNSTYRVVSVLTVLHQDWLNGKEYKCKVSNKGLPSSIEKTISKAKGQPREPQVYTLPPCQEEMTKNQVSLWCLVKGFYPSDIAVEWESNGQPENNYKTTPPVLDSDGSFFLYSRLTVDKSRWQEGNVFSCSVMHEALHNHYTQKSLSLSLGK
chain 2: EVQLLESGGGLVQPGGSLRLSCAASGFTFGNYDMAWVRQAPGKRPEWVSSIDTGGDITHYADSVKGRFTISRDNAKNTLYLQMNSLRPEDTAVYWCATDEEYALGPNEFDYYGQGTLVTVSSRSGPPCPPCPAPEFLGGPSVFLFPPKPKDTLMISRTPEVTCVVVDVSQEDPEVQFNWYVDGVEVHNAKTKPREEQFNSTYRVVSVLTVLHQDWLNGKEYKCKVSNKGLPSSIEKTISKAKGQPREPQVCTLPPSQEEMTKNQVSLSCAVKGFYPSDIAVEWESNGQPENNYKTTPPVLDSDGSFFLVSRLTVDKSRWQEGNVFSCSVMHEALHNHYTQKSLSLSLGK
B5: NIgG4F2A1(G4S)1 (Fc fusion)
chain 1: DVQLQESGGGLVQAGGSLKLSCAASGGSLSRYDMGWFRQAPGKEREFVARISWSGDTKYYADAVEGRFAISRDNAQNTVYLQMNSLKPEDTAVYYCAVALYGNRGYYDVNTYSYWGQGTRVTVSGGGGSGPPCPPCPAPEFLGGPSVFLFPPKPKDTLMISRTPEVTCVVVDVSQEDPEVQFNWYVDGVEVHNAKTKPREEQFNSTYRVVSVLTVLHQDWLNGKEYKCKVSNKGLPSSIEKTISKAKGQPREPQVYTLPPCQEEMTKNQVSLWCLVKGFYPSDIAVEWESNGQPENNYKTTPPVLDSDGSFFLYSRLTVDKSRWQEGNVFSCSVMHEALHNHYTQKSLSLSLGK
chain 2: EVQLLESGGGLVQPGGSLRLSCAASGFTFGNYDMAWVRQAPGKRPEWVSSIDTGGDITHYADSVKGRFTISRDNAKNTLYLQMNSLRPEDTAVYWCATDEEYALGPNEFDYYGQGTLVTVSSGGGGSGPPCPPCPAPEFLGGPSVFLFPPKPKDTLMISRTPEVTCVVVDVSQEDPEVQFNWYVDGVEVHNAKTKPREEQFNSTYRVVSVLTVLHQDWLNGKEYKCKVSNKGLPSSIEKTISKAKGQPREPQVCTLPPSQEEMTKNQVSLSCAVKGFYPSDIAVEWESNGQPENNYKTTPPVLDSDGSFFLVSRLTVDKSRWQEGNVFSCSVMHEALHNHYTQKSLSLSLGK
B6: NIgG4F2A1(G4S)3 (Fc fusion)
chain 1: DVQLQESGGGLVQAGGSLKLSCAASGGSLSRYDMGWFRQAPGKEREFVARISWSGDTKYYADAVEGRFAISRDNAQNTVYLQMNSLKPEDTAVYYCAVALYGNRGYYDVNTYSYWGQGTRVTVSGGGGSGGGGSGGGGSGPPCPPCPAPEFLGGPSVFLFPPKPKDTLMISRTPEVTCVVVDVSQEDPEVQFNWYVDGVEVHNAKTKPREEQFNSTYRVVSVLTVLHQDWLNGKEYKCKVSNKGLPSSIEKTISKAKGQPREPQVYTLPPCQEEMTKNQVSLWCLVKGFYPSDIAVEWESNGQPENNYKTTPPVLDSDGSFFLYSRLTVDKSRWQEGNVFSCSVMHEALHNHYTQKSLSLSLGK
chain 2: EVQLLESGGGLVQPGGSLRLSCAASGFTFGNYDMAWVRQAPGKRPEWVSSIDTGGDITHYADSVKGRFTISRDNAKNTLYLQMNSLRPEDTAVYWCATDEEYALGPNEFDYYGQGTLVTVSSGGGGSGGGGSGGGGSGPPCPPCPAPEFLGGPSVFLFPPKPKDTLMISRTPEVTCVVVDVSQEDPEVQFNWYVDGVEVHNAKTKPREEQFNSTYRVVSVLTVLHQDWLNGKEYKCKVSNKGLPSSIEKTISKAKGQPREPQVCTLPPSQEEMTKNQVSLSCAVKGFYPSDIAVEWESNGQPENNYKTTPPVLDSDGSFFLVSRLTVDKSRWQEGNVFSCSVMHEALHNHYTQKSLSLSLGK
B7: CIgG4F2A1(G4S)1 (Fc fusion)
chain 1: GPPCPPCPAPEFLGGPSVFLFPPKPKDTLMISRTPEVTCVVVDVSQEDPEVQFNWYVDGVEVHNAKTKPREEQFNSTYRVVSVLTVLHQDWLNGKEYKCKVSNKGLPSSIEKTISKAKGQPREPQVYTLPPCQEEMTKNQVSLWCLVKGFYPSDIAVEWESNGQPENNYKTTPPVLDSDGSFFLYSRLTVDKSRWQEGNVFSCSVMHEALHNHYTQKSLSLSLGKGGGGSDVQLQESGGGLVQAGGSLKLSCAASGGSLSRYDMGWFRQAPGKEREFVARISWSGDTKYYADAVEGRFAISRDNAQNTVYLQMNSLKPEDTAVYYCAVALYGNRGYYDVNTYSYWGQGTRVTVS
chain 2: GPPCPPCPAPEFLGGPSVFLFPPKPKDTLMISRTPEVTCVVVDVSQEDPEVQFNWYVDGVEVHNAKTKPREEQFNSTYRVVSVLTVLHQDWLNGKEYKCKVSNKGLPSSIEKTISKAKGQPREPQVCTLPPSQEEMTKNQVSLSCAVKGFYPSDIAVEWESNGQPENNYKTTPPVLDSDGSFFLVSRLTVDKSRWQEGNVFSCSVMHEALHNHYTQKSLSLSLGKGGGGSEVQLLESGGGLVQPGGSLRLSCAASGFTFGNYDMAWVRQAPGKRPEWVSSIDTGGDITHYADSVKGRFTISRDNAKNTLYLQMNSLRPEDTAVYWCATDEEYALGPNEFDYYGQGTLVTVSS
B8: NIgG4F2A1(G4S)2 (Fc fusion)
chain 1: DVQLQESGGGLVQAGGSLKLSCAASGGSLSRYDMGWFRQAPGKEREFVARISWSGDTKYYADAVEGRFAISRDNAQNTVYLQMNSLKPEDTAVYYCAVALYGNRGYYDVNTYSYWGQGTRVTVSGGGGSGGGGSGPPCPPCPAPEFLGGPSVFLFPPKPKDTLMISRTPEVTCVVVDVSQEDPEVQFNWYVDGVEVHNAKTKPREEQFNSTYRVVSVLTVLHQDWLNGKEYKCKVSNKGLPSSIEKTISKAKGQPREPQVYTLPPCQEEMTKNQVSLWCLVKGFYPSDIAVEWESNGQPENNYKTTPPVLDSDGSFFLYSRLTVDKSRWQEGNVFSCSVMHEALHNHYTQKSLSLSLGK
chain 2: EVQLLESGGGLVQPGGSLRLSCAASGFTFGNYDMAWVRQAPGKRPEWVSSIDTGGDITHYADSVKGRFTISRDNAKNTLYLQMNSLRPEDTAVYWCATDEEYALGPNEFDYYGQGTLVTVSSGGGGSGGGGSGPPCPPCPAPEFLGGPSVFLFPPKPKDTLMISRTPEVTCVVVDVSQEDPEVQFNWYVDGVEVHNAKTKPREEQFNSTYRVVSVLTVLHQDWLNGKEYKCKVSNKGLPSSIEKTISKAKGQPREPQVCTLPPSQEEMTKNQVSLSCAVKGFYPSDIAVEWESNGQPENNYKTTPPVLDSDGSFFLVSRLTVDKSRWQEGNVFSCSVMHEALHNHYTQKSLSLSLGK

Each binder was assayed against mixture of three Der p 2 specific recombinant human IgE clones H10, H12, P4E (human) (UniProt P01854) (assay: RBL-SX38 IgE displacement, FACS).
mixture of three Der p 2 specific recombinant human IgE clones H10, H12, P4E (human), sequence (P01854 other isoform, or with tags, fused parts or gaps): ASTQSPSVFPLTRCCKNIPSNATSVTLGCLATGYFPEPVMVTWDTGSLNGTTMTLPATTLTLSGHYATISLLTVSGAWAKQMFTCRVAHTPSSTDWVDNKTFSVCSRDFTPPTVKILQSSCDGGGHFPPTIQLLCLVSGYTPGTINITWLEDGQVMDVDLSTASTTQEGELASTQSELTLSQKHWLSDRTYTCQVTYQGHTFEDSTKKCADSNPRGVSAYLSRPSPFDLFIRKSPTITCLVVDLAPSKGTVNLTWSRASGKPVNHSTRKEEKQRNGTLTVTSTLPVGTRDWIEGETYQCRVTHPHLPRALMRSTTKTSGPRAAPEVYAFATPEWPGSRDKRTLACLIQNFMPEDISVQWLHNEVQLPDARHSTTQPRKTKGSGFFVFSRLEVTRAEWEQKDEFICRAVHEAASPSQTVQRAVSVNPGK

Max effect/effect 1 µM | EC50 | Binder
3% | – | B1
0% | – | B2
0% | – | B3
88% | 2 nM | B4
92% | 2 nM | B5
95% | 2 nM | B6
11% | – | B7
94% | 2 nM | B8
